Test results reported in paper PMC7532149, “Antibiotic export by MexB multidrug efflux transporter is allosterically controlled by a MexA-OprM chaperone-like complex” (Nature Communications, 2020).

T1: MexA (Pseudomonas aeruginosa), P52477
T1 chain: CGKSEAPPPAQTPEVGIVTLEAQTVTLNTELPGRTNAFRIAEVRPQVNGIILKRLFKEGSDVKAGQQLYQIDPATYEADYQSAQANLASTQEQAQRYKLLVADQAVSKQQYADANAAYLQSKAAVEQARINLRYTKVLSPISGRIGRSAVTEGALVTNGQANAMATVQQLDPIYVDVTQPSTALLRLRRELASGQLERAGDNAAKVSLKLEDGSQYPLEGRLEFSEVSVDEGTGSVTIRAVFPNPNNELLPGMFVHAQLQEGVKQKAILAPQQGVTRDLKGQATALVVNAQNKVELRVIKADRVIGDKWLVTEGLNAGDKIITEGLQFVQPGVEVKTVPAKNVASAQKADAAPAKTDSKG

B1: OprM (natural protein)
chain: CSLIPDYQRPEAPVAAAYPQGQAYGQNTGAAAVPAADIGWREFFRDPQLQQLIGVALENNRDLRVAALNVEAFRAQYRIQRADLFPRIGVDGSGTRQRLPGDLSTTGSPAISSQYGVTLGTTAWELDLFGRLRSLRDQALEQYLATEQAQRSAQTTLVASVATAYLTLKADQAQLQLTKDTLGTYQKSFDLTQRSYDVGVASALDLRQAQTAVEGARATLAQYTRLVAQDQNALVLLLGSGIPANLPQGLGLDQTLLTEVPAGLPSDLLQRRPDILEAEHQLMAANASIGAARAAFFPSISLTANAGTMSRQLSGLFDAGSGSWLFQPSINLPIFTAGSLRASLDYAKIQKDINVAQYEKAIQTAFQEVADGLAARGTFTEQLQAQRDLVKASDEYYQLADKRYRTGVDNYLTLLDAQRSLFTAQQQLITDRLNQLTSEVNLYKALGGGWNQQTVTQQQTAKKEDPQA
notes: OprM, outer-membrane factor of the MexAB-OprM efflux system of Pseudomonas aeruginosa; Homotrimer; also called OprM-ND; outer-membrane factor (OMF); source: reconstituted in POPC nanodiscs (MSP1D1) or DOPC proteoliposomes
B2: MexA, P52477 24-383 (natural protein)
chain: T1 chain
modifications: here or on the partner: lipid moiety of the N-terminal cysteine; lipid moiety of the N-terminal cysteine
B3: MexA (natural protein)
chain: T1 chain
modifications: lipid moiety of the N-terminal cysteine
notes: MexA, periplasmic membrane fusion lipoprotein of Pseudomonas aeruginosa; N-terminal cysteine carries a lipid moiety; Six copies (a hexamer of two non-equivalent protomers, MexA-I and MexA-II) stand in the tripartite complex; also called MexA-I; MexA-II; source: reconstituted with MexB in POPC nanodiscs or DOPC/cholesterol proteoliposomes
B4: MexB (natural protein)
chain: MSKFFIDRPIFAWVIALVIMLAGGLSILSLPVNQYPAIAPPAIAVQVSYPGASAETVQDTVVQVIEQQMNGIDNLRYISSESNSDGSMTITVTFEQGTDPDIAQVQVQNKLQLATPLLPQEVQRQGIRVTKAVKNFLMVVGVVSTDGSMTKEDLSNYIVSNIQDPLSRTKGVGDFQVFGSQYSMRIWLDPAKLNSYQLTPGDVSSAIQAQNVQISSGQLGGLPAVKGQQLNATIIGKTRLQTAEQFENILLKVNPDGSQVRLKDVADVGLGGQDYSINAQFNGSPASGIAIKLATGANALDTAKAIRQTIANLEPFMPQGMKVVYPYDTTPVVSASIHEVVKTLGEAILLVFLVMYLFLQNFRATLIPTIAVPVVLLGTFGVLAAFGFSINTLTMFGMVLAIGLLVDDAIVVVENVERVMAEEGLSPREAARKSMGQIQGALVGIAMVLSAVFLPMAFFGGSTGVIYRQFSITIVSAMALSVIVALILTPALCATMLKPIEKGDHGEHKGGFFGWFNRMFLSTTHGYERGVASILKHRAPYLLIYVVIVAGMIWMFTRIPTAFLPDEDQGVLFAQVQTPPGSSAERTQVVVDSMREYLLEKESSSVSSVFTVTGFNFAGRGQSSGMAFIMLKPWEERPGGENSVFELAKRAQMHFFSFKDAMVFAFAPPSVLELGNATGFDLFLQDQAGVGHEVLLQARNKFLMLAAQNPALQRVRPNGMSDEPQYKLEIDDEKASALGVSLADINSTVSIAWGSSYVNDFIDRGRVKRVYLQGRPDARMNPDDLSKWYVRNDKGEMVPFNAFATGKWEYGSPKLERYNGVPAMEILGEPAPGLSSGDAMAAVEEIVKQLPKGVGYSWTGLSYEERLSGSQAPALYALSLLVVFLCLAALYESWSIPFSVMLVVPLGVIGALLATSMRGLSNDVFFQVGLLTTIGLSAKNAILIVEFAKELHEQGKGIVEAAIEACRMRLRPIVMTSLAFILGVVPLAISTGAGSGSQHAIGTGVIGGMVTATVLAIFWVPLFYVAVSTLFKDEASKQQASVEKGQ
notes: MexB, inner-membrane RND multidrug efflux transporter of Pseudomonas aeruginosa; wild type; Homotrimer, both alone in the nanodisc (MexB-solo, LTC form) and in the tripartite complex (MexB-trio, LTO form); also called MexB-solo; MexB-trio; source: reconstituted in POPC nanodiscs (MSP1E3D1) or DOPC/cholesterol proteoliposomes

What was measured:
Test in all cases: cryo-EM structure; tripartite MexAB-OprM complex self-assembled from MexA and MexB in POPC nanodiscs and OprM in POPC nanodiscs; 10 mM Tris/Cl pH 7.4, 100 mM NaCl; enriched by SEC (Superose 6, detergent-free buffer); single-particle analysis, no symmetry imposed
[1] = molecular target: the molecule itself
[2] = molecular target: T1, MexA (Pseudomonas aeruginosa), P52477; conditions: remark: other sources report otherwise
OprM = molecular target: B1; conditions: both partners purified

## B1
[1]
  stoichiometry N: 3

## B2
[2]
  stoichiometry N: 6

## B3
OprM
  stoichiometry N: 2 MexA per OprM

## B4
[1]
  stoichiometry N: 3
